Columns and labels:
Assay in all cases: cell-based or functional assay
[1] = target: bovine serum albumin (bovine) (UniProt P02769)
collagen type IV = target: collagen type IV
fibronectin = target: fibronectin

Sequence of UniProt P02769 (P02769 25-607 limits assumed): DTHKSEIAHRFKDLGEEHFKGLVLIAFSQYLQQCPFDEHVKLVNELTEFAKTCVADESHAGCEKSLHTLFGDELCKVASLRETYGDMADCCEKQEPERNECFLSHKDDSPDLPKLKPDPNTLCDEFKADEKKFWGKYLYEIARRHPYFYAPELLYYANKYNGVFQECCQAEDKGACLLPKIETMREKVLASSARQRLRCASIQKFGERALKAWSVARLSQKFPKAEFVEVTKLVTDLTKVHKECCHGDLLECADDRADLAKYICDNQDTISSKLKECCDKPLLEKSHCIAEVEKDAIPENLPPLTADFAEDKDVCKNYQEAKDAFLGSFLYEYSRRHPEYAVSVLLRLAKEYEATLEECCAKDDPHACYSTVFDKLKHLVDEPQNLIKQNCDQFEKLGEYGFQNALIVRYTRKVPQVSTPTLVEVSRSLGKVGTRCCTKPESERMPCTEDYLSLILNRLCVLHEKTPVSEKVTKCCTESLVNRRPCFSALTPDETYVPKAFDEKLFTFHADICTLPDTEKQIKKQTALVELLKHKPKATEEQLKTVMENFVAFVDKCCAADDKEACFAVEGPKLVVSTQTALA

- IC50 of saratin inhibition of MCP-1-induced human monocyte migration through filters coated with 1 mg/mL BSA (Boyden chamber) [1]: 37 nM
- Saratin IC50, MCP-1-induced human monocyte migration through filters coated with BSA, coating conc. 1.0 as the table prints it (the text gives 1.1 nM for 0.01 mg/mL BSA) (Boyden chamber) [1]: 1.1 nM
- Saratin IC50, MIP-1alpha-induced human T lymphocyte migration through filters coated with BSA, coating conc. 1.0 (Boyden chamber) [1]: 185 nM
- Saratin IC50, MCP-1-induced human monocyte migration through filters coated with Collagen IV, coating conc. 0.01 (Boyden chamber) (collagen type IV): 0.172 nM
- Saratin IC50, MCP-1-induced human monocyte migration through filters coated with Collagen IV, coating conc. 1.0 (Boyden chamber) (collagen type IV): 0.0623 nM
- Saratin IC50, MIP-1alpha-induced human T lymphocyte migration through filters coated with Collagen IV, coating conc. 0.01 (Boyden chamber) (collagen type IV): 6.86 nM
- Saratin IC50, MIP-1alpha-induced human T lymphocyte migration through filters coated with Collagen IV, coating conc. 1.0 (Boyden chamber) (collagen type IV): 0.0079 nM
- Saratin IC50, MCP-1-induced human monocyte migration through filters coated with Fibronectin, coating conc. 1.0 (Boyden chamber) (fibronectin): 19.4 nM
- Saratin IC50, MIP-1alpha-induced human T lymphocyte migration through filters coated with Fibronectin, coating conc. 1.0 (Boyden chamber) (fibronectin): 3.69 nM
B1: saratin (protein)
chain: EEREDCWTFYANRKYTDFDKSFKKSSDLDECKKTCFKTEYCYIVFEDTVNKECYYNVVDGEELDQEKFVVDENFTENYLTDCEGKDAGNAAGTGDESDEVDED
